B1: P1172 (peptide)
peptide: ALAIVYLIAL
notes: Synthetic 10-mer, purity >90%; also called Native 432
B2: P1172(1Y) (peptide)
peptide: YLAIVYLIAL
B3: P1177 (peptide)
peptide: YLIALAVCQC
notes: Synthetic 10-mer
B4: P1177(10V) (peptide)
peptide: YLIALAVCQV
B5: P1240 (peptide)
peptide: SLSYTNPAV
notes: Synthetic 9-mer
B6: P1240(1Y) (peptide)
peptide: YLSYTNPAV
B7: VNTR-1 (peptide)
peptide: STAPPAHNV
notes: Synthetic 9-mer; also called pVNTR1
B8: VNTR-2 (peptide)
peptide: STAPPAHGV
notes: Synthetic 9-mer; also called pVNTR2; VNTR-2 (native)
B9: VNTR-3 (agonist) (peptide)
peptide: YLAPPAHGV
notes: also called pVNTR3; pVNTR-3
B10: VNTR-4 (peptide)
peptide: APDTRPAPG
notes: Synthetic 9-mer; also called pVNTR4; VNTR-4 (native)
B11: VNTR-5 (agonist) (peptide)
peptide: YLDTRPAPV
notes: Synthetic analog with substitutions at positions 1, 2 and 9; also called pVNTR5; pVNTR-5

The binders below were run against T1, HLA-A2 molecules on T2A2 cells (human) (assay: flow cytometry, upregulation of HLA-A2 on T2A2 cells, peptide 12.5 µg/mL).
T1 construct: whole, on cells; also called class I molecules
Description: *Peptides were used at a concentration of 12.5 μg/mL. ^{#}Results expressed as mean fluorescence intensity (MFI). NGEP (P703) peptide is an HLA-A2-binding peptide. CAP-7 peptide is an HLA-A3-binding CEA peptide
In the case of B1, the “T2 Binding (MFI)” value is reported as 249 MFI.
With B2 the “T2 Binding (MFI)” value was 245 MFI.
For B3, the “T2 Binding (MFI)” value was 211 MFI.
With B4 the “T2 Binding (MFI)” value was 299 MFI.
With B5 the “T2 Binding (MFI)” value was 326 MFI.
With B6 the “T2 Binding (MFI)” value was 342 MFI.

The binders below were run against T1, HLA-A2 molecules on T2A2 cells (assay: flow cytometry, upregulation of HLA-A2 on T2A2 cells, peptide 25 µg/mL).
Description: *Peptides were used at a concentration of 25 μg/mL. ^{#}Results expressed as mean fluorescence intensity (MFI).
With B7 the “T2A2 Binding (MFI)” value was 169 MFI.
B8 was tested, and the “T2A2 Binding (MFI)” value was 166 MFI.
B9 was tested, and the “T2A2 Binding (MFI)” value was 486 MFI.
For B10, the “T2A2 Binding (MFI)” value was 210 MFI.
B11 was tested, and the “T2A2 Binding (MFI)” value was 647 MFI.
